Reference: PMC5383425, “Differential CLE peptide perception by plant receptors implicated from structural and functional analyses of TDIF-TDR interactions” (PLoS ONE, 2017)
Positions count from the first letter of the chain named. Square brackets hold non-standard residues; d marks the D form. Ends that are not written are not given here. Hyp = O=C(O)[C@@H]1C[C@@H](O)CN1

What was measured:
Assay in all cases: ITC; 0.5–1 mM peptide titrated into 10–40 μM ecdTDR; 25°C; 10 mM sodium citrate, 100 mM NaCl, pH 5.5; fitted to one set of binding sites; MicroCal Auto-iTC200
Settings in all cases: both partners purified
[1] = target: T1, ecdTDR F279/F281 double alanine mutant (Arabidopsis thaliana, UniProt Q9FII5 30-642, F279 to alanine | F281 to alanine)
T1 construct: TDR/PXY of A. thaliana, extracellular domain, residues 30-642; also called F279A/F281A; source: High Five insect cells (baculovirus), secreted, purified as the wild type (Ni-NTA, size-exclusion chromatography)
T1 sequence (looked up): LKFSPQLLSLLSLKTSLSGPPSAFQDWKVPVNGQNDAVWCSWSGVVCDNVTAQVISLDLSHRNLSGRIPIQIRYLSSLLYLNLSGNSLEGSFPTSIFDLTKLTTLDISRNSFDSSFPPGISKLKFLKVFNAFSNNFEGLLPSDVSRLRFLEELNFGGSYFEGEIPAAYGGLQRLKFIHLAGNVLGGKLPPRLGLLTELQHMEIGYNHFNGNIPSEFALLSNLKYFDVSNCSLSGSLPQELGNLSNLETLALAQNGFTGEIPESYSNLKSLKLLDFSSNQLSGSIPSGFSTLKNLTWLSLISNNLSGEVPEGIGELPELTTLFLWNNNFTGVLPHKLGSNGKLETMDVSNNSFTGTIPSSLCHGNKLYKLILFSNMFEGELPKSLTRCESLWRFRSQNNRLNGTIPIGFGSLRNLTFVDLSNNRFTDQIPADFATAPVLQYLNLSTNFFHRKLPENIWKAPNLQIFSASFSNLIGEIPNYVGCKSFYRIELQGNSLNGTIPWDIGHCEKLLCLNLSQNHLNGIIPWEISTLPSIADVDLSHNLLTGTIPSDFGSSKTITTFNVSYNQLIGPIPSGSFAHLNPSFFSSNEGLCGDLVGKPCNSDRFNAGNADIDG

ecdTDR S162A mutant = target: T2, ecdTDR S162A mutant (Arabidopsis thaliana, UniProt Q9FII5 30-642, S162A)
T2 construct: TDR/PXY of A. thaliana, extracellular domain, residues 30-642; source: High Five insect cells (baculovirus), secreted, purified as the wild type (Ni-NTA, size-exclusion chromatography)
T2 sequence (looked up): T1 sequence (looked up) with S133A, A250F, A252F

ecdTDR R138E mutant = target: T3, ecdTDR R138E mutant (Arabidopsis thaliana, UniProt Q9FII5 30-642, R138E)
T3 construct: TDR/PXY of A. thaliana, extracellular domain, residues 30-642; source: High Five insect cells (baculovirus), secreted, purified as the wild type (Ni-NTA, size-exclusion chromatography)
T3 sequence (looked up): T1 sequence (looked up) with R109E, A250F, A252F

B1: Tracheary Element Differentiation Inhibitory Factor (TDIF) peptide (peptide)
peptide: HEV[Hyp]SG[Hyp]NPISN
notes: TDIF, the 12-residue CLE peptide processed from CLE41 and CLE44 of A. thaliana; printed as HEV(Hyp)SG(Hyp)NPISN; numbers count on: the 12-residue peptide; CLE44 encodes the same peptide; also called wild type TDIF; wtTDIF; source: synthetic peptide (peptide 2.0)
Q: What does the source list for B1?
A: fold decrease in binding against wild-type ecdTDR [1]: 8.6 fold; binding result (ecdTDR S162A mutant): binds; binding result (ecdTDR R138E mutant): binds
